Measured values published in IntAct's records for PubMed 18826941.

B1: "UDP-GlcNAc:betaGal beta-1,3-N-acetylglucosaminyltransferase 8" (Homo sapiens), Q7Z7M8 (parent)
chain: MRCPKCLLCLSALLTLLGLKVYIEWTSESRLSKAYPSPRGTPPSPTPANPEPTLPANLSTRLGQTIPLPFAYWNQQQWRLGSLPSGDSTETGGCQAWGAAAATEIPDFASYPKDLRRFLLSAACRSFPQWLPGGGGSQVSSCSDTDVPYLLLAVKSEPGRFAERQAVRETWGSPAPGIRLLFLLGSPVGEAGPDLDSLVAWESRRYSDLLLWDFLDVPFNQTLKDLLLLAWLGRHCPTVSFVLRAQDDAFVHTPALLAHLRALPPASARSLYLGEVFTQAMPLRKPGGPFYVPESFFEGGYPAYASGGGYVIAGRLAPWLLRAAARVAPFPFEDVYTGLCIRALGLVPQAHPGFLTAWPADRTADHCAFRNLLLVRPLGPQASIRLWKQLQDPRLQC
partner: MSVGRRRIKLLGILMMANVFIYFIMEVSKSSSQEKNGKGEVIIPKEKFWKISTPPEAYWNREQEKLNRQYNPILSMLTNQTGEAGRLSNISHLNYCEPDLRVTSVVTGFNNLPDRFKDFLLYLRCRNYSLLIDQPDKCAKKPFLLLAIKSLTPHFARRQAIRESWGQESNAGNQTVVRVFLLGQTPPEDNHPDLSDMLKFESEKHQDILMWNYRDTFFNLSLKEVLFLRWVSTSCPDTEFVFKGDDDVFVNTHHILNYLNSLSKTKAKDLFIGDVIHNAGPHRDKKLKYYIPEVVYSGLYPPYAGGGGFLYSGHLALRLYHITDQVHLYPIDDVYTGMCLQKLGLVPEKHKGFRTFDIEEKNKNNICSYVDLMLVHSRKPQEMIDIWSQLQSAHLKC
B2: N-acetyllactosaminide beta-1,3-N-acetylglucosaminyltransferase 2 (Homo sapiens), Q9NY97 (parent)
chain: B1 partner
partner: B1 chain

Variants of: B1
Conditions: with B3GNT2, Q9NY97

Row | Variant | effect of a mutation on the interaction
1 | MRCPKCLLCLSALLTLLGLKVYIEWTSESRLSKAYPSPRGTPPSPTPANPEPTLPANLSTRLGQTIPLPFAYWNQQQWRLGSLPSGDSTETGGCQAWGAAAATEIPDFASYPKDLRRFLLSAACRSFPQWLPGGGGSQVSSCSDTDVPYLLLAVKSEPGRFAERQAVRETWGSPAPGIRLLFLLGSPVGEAGPDLDSLVAWESRRYSDLLLWDFLDVPFNQTLKDLLLLAWLGRHCPTVSFVLRAADDAFVHTPALLAHLRALPPASARSLYLGEVFTQAMPLRKPGGPFYVPESFFEGGYPAYASGGGYVIAGRLAPWLLRAAARVAPFPFEDVYTGLCIRALGLVPQAHPGFLTAWPADRTADHCAFRNLLLVRPLGPQASIRLWKQLQDPRLQC [Q246A] | with no effect

Variants of: B2
Conditions: with B3GNT8, Q7Z7M8

Row | Variant | effect of a mutation on the interaction
2 | MSVGRRRIKLLGILMMANVFIYFIMEVSKSSSQEKNGKGEVIIPKEKFWKISTPPEAYWNREQEKLNRQYNPILSMLTNQTGEAGRLSNISHLNYCEPDLRVTSVVTGFNNLPDRFKDFLLYLRCRNYSLLIDQPDKCAKKPFLLLAIKSLTPHFARRQAIRESWGQESNAGNQTVVRVFLLGQTPPEDNHPDLSDMLKFESEKHQDILMWNYRDTFFNLSLKEVLFLRWVSTSCPDTEFVFKGADDVFVNTHHILNYLNSLSKTKAKDLFIGDVIHNAGPHRDKKLKYYIPEVVYSGLYPPYAGGGGFLYSGHLALRLYHITDQVHLYPIDDVYTGMCLQKLGLVPEKHKGFRTFDIEEKNKNNICSYVDLMLVHSRKPQEMIDIWSQLQSAHLKC [D245A] | with no effect
